According to patent publication US20040235112A1:

Molecular target: JNKK (UniProt P45985)
Assay: cell-based or functional assay

Sequence of JNKK (P45985 whole entry): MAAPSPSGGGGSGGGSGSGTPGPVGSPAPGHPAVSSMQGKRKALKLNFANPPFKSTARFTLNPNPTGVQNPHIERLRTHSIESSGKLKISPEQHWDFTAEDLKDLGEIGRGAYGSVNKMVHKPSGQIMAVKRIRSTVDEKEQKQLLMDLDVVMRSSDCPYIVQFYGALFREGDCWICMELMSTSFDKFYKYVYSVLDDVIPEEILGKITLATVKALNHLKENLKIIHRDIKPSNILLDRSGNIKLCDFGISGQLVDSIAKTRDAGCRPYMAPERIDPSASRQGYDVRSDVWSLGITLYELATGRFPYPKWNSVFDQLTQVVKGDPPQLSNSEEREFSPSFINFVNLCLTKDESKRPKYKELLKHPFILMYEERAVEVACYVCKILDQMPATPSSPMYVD

JNKK activation in COS cells cotransfected with MEKK expression vector (immune complex kinase assay with GST-JNK2) (ng expression vector): 125
Substance: MEKK (enzyme)
